Converted amounts (≈) assume the structure as drawn. Non-standard residues stand in square brackets, D forms with d. No end group written: not given here. pGlu = O=C1CC[C@@H](C(=O)O)N1
Key:
[1] = tested on: spleen rosette forming cells (RFC); test: cells; details: Mus musculus, read-out: AZ minimal concentration inhibiting 50 percent spleen rosette forming cells
Procedure: At the end of the incubation, 12 × 10^6 sheep red blood cells (SRBC) are added to the cells in the test sample. The cells in the sample are centrifuged for 6 minutes at 200 g. and carefully and gently resuspended by rotation on a roller (10 cm. diameter) at low speed (10 rev./min.). RFC are counted in a haematocytometer. In the absence of thymic activity, the number of RFC is 1210/10^6 cells ± 120 (standard deviation, SD). In the presence of thymic activity, the RFC level is lowered to 200 to 400/10^6 cells.

isoelectric point = type: physicochemical; details: given as pH
Excerpt: The polypeptide hormone of this invention has an isoelectric point (pI) at pH 7.5 ± 0.1. Lack of affinity to activated charcoal indicates the absence of aromatic amino acids. Elution of the polypeptide with the void volume when chromatographed on Sephadex G-10 and retention on Sephadex G-15, G-25 and G-50 indicates a molecular weight greater than 700 and less than 3,000. Ultrafiltration through Amicon membranes indicates a molecular weight of […] to 10,000. No significant retention of the polypeptide is observed on CF-50, PM-30 and PM-10 membranes which have molecular cut-offs of 50,000; 30,000 and 10,000 respectively. Conversely no significant activity is found in UM2 and UM0.5 filtrates which have molecular weight cut-offs of 1,000 and 500 respectively. The polypeptide has the property that it binds to carboxymethyl cellulose at pH lower than 7.0 and to DEAE cellulose at a pH higher than 9.0. The polypeptide bound on carboxymethyl cellulose can be eluted with 0.12M NaCl.

IC50 [1] | Compound | isoelectric point (pI) (isoelectric point) | isoelectric point (pI) (isoelectric point; listed as thymic factor)
1 µg/mL (≈ 3.61 µM) | Cn1cnc([N+](=O)[O-])c1Sc1ncnc2nc[nH]c12 [AZ, azathioprine] | – | –
– | pyroglutamyl-Ala-Lys-Ser-Gln-Gly-Gly-Ser-Asn ([pGlu]AKSQGGSN) [polypeptide hormone, polypeptide hormone isolated from porcine blood] | 7.5 ± 0.1 | ~7.5
